For this experiment, the target named is CK2β (Homo sapiens, UniProt P67870). In words: ITC.
CK2β, sequence (P67870 2-215): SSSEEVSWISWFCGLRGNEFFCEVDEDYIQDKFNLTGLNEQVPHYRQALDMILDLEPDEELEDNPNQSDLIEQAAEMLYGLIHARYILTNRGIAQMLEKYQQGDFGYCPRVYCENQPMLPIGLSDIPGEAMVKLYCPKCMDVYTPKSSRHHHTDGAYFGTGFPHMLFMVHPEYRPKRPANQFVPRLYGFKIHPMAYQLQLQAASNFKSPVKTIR

B1: CK2α (protein)
chain: MSGPVPSRARVYTDVNTHRPREYWDYESHVVEWGNQDDYQLVRKLGRGKYSEVFEAINITNNEKVVVKILKPVKKKKIKREIKILENLRGGPNIITLADIVKDPVSRTPALVFEHVNNTDFKQLYQTLTDYDIRFYMYEILKALDYCHSMGIMHRDVKPHNVMIDHEHRKLRLIDWGLAEFYHPGQEYNVRVASRYFKGPELLVDYQMYDYSLDMWSLGCMLASMIFRKEPFFHGHDNYDQLVRIAKVLGTEDLYDYIDKYNIELDPRFNDILGRHSRKRWERFVHSENQHLVSPEALDFLDKLLRYDHQSRLTAREAMEHPYFYTVVKDQARMGSSSMPGGSTPVSSANMMSGISSVPTPSPLGPLAGSPVIAAANPLGMPVPAAAGAQQ
For orientation: Kd means the free concentration of one partner at which half of the binding sites on the other are occupied at equilibrium, for simple one-to-one binding. Lower therefore signals higher affinity. Molecule B1 registered a Kd of 9 nM.

The values are drawn from publication PMC6530537 (2019).
